{"source": "patent US11464784B2", "about": "“Inhibition of aminocylase 3 (AA3) in the treatment of cancer” (THE REGENTS OF THE UNIVERSITY OF CALIFORNIA, priority 2017, dated 2022)", "proteins": {"B1": {"name": "mAA3 (Mus musculus) (protein)", "chain": "MSSLPGSREPLLRVAVTGGTHGNEMCGVYLARYWLQNPGELQRPSFSAMPVLANPAATAACCRYLDRDLNRSCTLTFLGSTATPDDPYEVKRARELNQLLGPKGTGQAFDFTLDLHNTTANTGVCLISESNISFNLHLCHYLQRQNPGMPCRLFLYEPAGTETFSVESISKNGICLEMGPQPQGVLRADLFSRMRALVASILDFIELFNQGMDLPAFEMDIYRNLGSVDFPRTADGDLAGTVHPQLQDHDFEPLRPGEPIFKLFSGEDVLYEGDSIVYPVFINEAAYYEKHVAFLKSEKIRVTVPALLRLTPRSTQTP"}}, "substrate": "CC(=O)C/C(C)=C/CC/C(C)=C/CC/C(C)=C/CC/C(C)=C/CN[C@@H](CS)C(=O)O", "assay": "Substrate kinetics of mouse AA3 (mAA3)", "format": "biochemical", "details": "other: substrate of mAA3", "data": [{"protein": "B1", "values": [{"measurement": "Km", "result": 25, "unit": "µM"}]}]}
